The results in this text go back to patent publication US8008547B2, “Glyphosate-N-acetyltransferase (GAT) genes” (E.I. duPont de Nemours, priority 2000, dated 2011).

What is called Km is the substrate concentration at which the rate is half of its maximum.

A short description of the data set: Standard protocol for determination of kcat and KM (continuous spectrophotometric assay, Acetyl CoA hydrolysis at 235 nm). In kind it is biochemical. Particulars: purified protein, about 23° C., 0.2 mM acetyl CoA; for Kcat: 20 mM HEPES pH 6.8, 10% ethylene glycol; for Km: pH 6.8, glyphosate 0.125 to 10 mM. Here is the method: KM was calculated from the initial reaction rates obtained from concentrations of glyphosate ranging from 0.125 to 10 mM, using the Lineweaver-Burke transformation of the Michaelis-Menten equation. kcat/KM was determined by dividing the value determined for kcat by the value determined for KM.
Using this methodology, kinetic parameters for a number of GAT polypeptides exemplified herein were determined. For example, the kcat, KM and kcat/KM for the GAT polypeptide corresponding to SEQ ID NO:445 have been determined to be 322 min^−1, 0.5 mM and 660 mM^−1 min^−1, respectively, using the assay conditions described above. The kcat, KM and kcat/KM for the GAT polypeptide corresponding to SEQ ID NO:457 have been determined to be 118 min^−1, 0.1 mM and 1184 mM^−1 min^−1, respectively, using the assay conditions described above. The kcat, KM and kcat/KM for the GAT polypeptide corresponding to SEQ ID NO:300 have been determined to be 296 min^−1, 0.65 mM and 456 mM^−1 min^−1, respectively, using the assay conditions described above. One of skill in the art can use these numbers to confirm that a GAT activity assay is generating kinetic parameters for a GAT suitable for comparison with the values given herein. For example, the conditions used to compare the activity of GATs should yield the same kinetic constants for SEQ ID NO: 300, 445 and 457 (within normal experimental variance) as those reported herein, when the conditions are used to compare a test GAT with the GAT polypeptides exemplified herein. Kinetic parameters for a number of GAT polypeptide variants were determined according to this methodology and are provided in Table 3.

B1: SEQ ID NO: 369: GAT polypeptide (protein)
chain: MIEVKPINAEDTYEIRHRILRPNQPLEACKYETDLLGGTFHLGGYYRGKLISIASFHQAEHSELEGQKQYQLRGMATLEGYREQKAGSTLIRHAEELLRKKGADLLWCNARTSASGYYKKLGFSEQGGVYDIPPIGPHILMYKKLT
modifications: 4B_16E1
notes: GAT polypeptide
As for B1, the Kcat was 17 min⁻¹ and the Km is 1 mM.

B2: SEQ ID NO: 376: GAT polypeptide (protein)
chain: MIEAKPINAEDTYEIRHRILRPNQPLEACKYETDLLGGTFHLGGYYRGKLISIASFHQAEHSELEGQKQYQLRGMATLEGYREQKAGSTLIRHAEELLRKKGADLLWCNARTSASGYYKKLGFSEQGEVYDIPPIGPHILMYKKLT
modifications: 4B_2H8
notes: GAT polypeptide
Turning to B2, the Kcat was determined as 38.3 min⁻¹ and the Km turned out to be 1.2 mM.

B3: SEQ ID NO: 268: GAT polypeptide (protein)
chain: MIEVKPINAEDTYEIRHRILRPNQPLEACMYETDLLRGAFHLGGYYRGKLISIASFHQAEHSELEGQKQYQLRGMATLEGYREQKAGSTLIRHAEELLRKKGADLLWCNARTSASGYYKKLGFSEQGEVYDTPPVGPHILMYKKLT
modifications: CHIMERA
notes: GAT polypeptide
With B3, the Kcat was determined as 155.4 min⁻¹ and the Km was 1.3 mM.

B4: SEQ ID NO: 382: GAT polypeptide (protein)
chain: MIEVKPINAEDTYEIRHRILRPNQPLEACKYETDLLGGTFHLGGYYRGKLISIASFHQAEHSELEGQKQYQLRGMATLEGYREQKAGSTLIRHAEELLRKKGADLLWCNARTSASGYYKKLGFSEQGEVYDIPPVGPHILMYKKLT
modifications: 6_15G7
notes: GAT polypeptide
On to B4, for which the Kcat stood at 48.4 min⁻¹ and the Km was determined as 1.3 mM.

B5: SEQ ID NO: 375: GAT polypeptide (protein)
chain: MIEVKPINAEDTYEIRHRILRPNQPLEACMYETDLLGGTFHLGGYYRGKLISIASFHQAEHSELEGQKQYQLRGMATLEGYREQKAGSTLIRHAEELLRKKGADLLWCNARTSASGYYKKLGFSEQGGVYGIPPIGPHILMYKKLT
modifications: 4B_2H7
notes: GAT polypeptide
Turning to B5, the Kcat is 27 min⁻¹ and the Km was determined as 6.2 mM.

B6: SEQ ID NO: 381: GAT polypeptide (protein)
chain: MIEVKPINAEDTYEIRHRILRPNQPLEACMYETDLLGGTFHLGGYYRGKLISIASFHQAEHSELEGHKQYQLRGMATLEEYREQKAGSTLIRHAEELLRKKGADLLWCNARTSASGYYKKLGFSEQGGVYDIPPVGPHILMYKKLT
modifications: 6_14D10
notes: GAT polypeptide
As for B6, the Kcat came out at 42.2 min⁻¹ and the Km was determined as 1.5 mM.

B7: SEQ ID NO: 386: GAT polypeptide (protein)
chain: MIEVKPINAEDTYEIRHRILRPNQPLEACRYETDLLGGTFHLGGYYRGKLISIASFHQAEHPELEGQKQYQLRGMATLEGYREQKAGSTLIRHAEELLRKKGADLLWCNARISASGYYKKLGFSEQGEVYDIPPVGPHILMYKKLT
modifications: 6_18C7
notes: GAT polypeptide
For the molecule B7, the Kcat was determined as 32.2 min⁻¹ and the Km worked out at 1.2 mM.

B8: SEQ ID NO: 370: GAT polypeptide (protein)
chain: MIEVKPINAEDTYEIRHRILRPNQPLEACKYETDLLGGTFHLGGYYRGKLISIASFHQAEHPELEGQKQYQLRGMATLEEYREQKAGSTLIRHAEELLRKKGADLLWCNARTSASGYYEKLGFSEQGEVYDIPPIGPHILMYKKLT
modifications: 4B_17A1
notes: GAT polypeptide
Regarding B8, the Kcat is 19.1 min⁻¹ and the Km stood at 1.1 mM.

B9: SEQ ID NO: 371: GAT polypeptide (protein)
chain: MIEVNPINAEDTYEIRHRILRPNQPLEACMYETDLLGGTSHLGGYYRGKLISIASFHNAEHSELDGQKQYQLRGMATLEGYREQKAGSTLIRHAEELLRKKGADLLWCNARTSVSGYYEKLGFSEQGEVYDIPPIGPHISMYKKLT
modifications: 4B_18F11
notes: GAT polypeptide
For the molecule B9, the Kcat is 14.6 min⁻¹ and the Km is 1.7 mM.

B10: SEQ ID NO: 379: GAT polypeptide (protein)
chain: MIEVKPINAEDTYEIRHRILRPNQPLEACMYETDLLRGAFHLGGYYRGKLISIASFHQAEHPELEGQKQYQLRGMATLEGYREQKAGSTLIRHAEELLRKKGADLLWCNARTSASGYYEKLGFSEQGEVYDIPPIGPHILMYKKLT
modifications: 4C_8C9
notes: GAT polypeptide
As to B10, the Kcat was found to be 9 min⁻¹ and the Km is 0.6 mM.

B11: SEQ ID NO: 380: GAT polypeptide (protein)
chain: MIEVKPINAEDTYEIRHRILRPNQPLEACMYETDLLGGAFHLGGYYQGKLISIASFHQAVHSELEGQKQYQLRGMATLEGYREQKAGSTLIRHAEELLRKKGADLLWCNARTSVSGYYKKLGFSEQGGVYDIPPIGPHILMYKKLT
modifications: 4H1
notes: GAT polypeptide
For B11, the Kcat is 1.3 min⁻¹ and the Michaelis constant (Km) came to 1.4 mM.

B12: SEQ ID NO: 373: GAT polypeptide (protein)
chain: MIEVKPINAEDTYEIRHRILRPNQPLEACKYETDLLGGAFHLGGYYRGKLISIASFHQSEHPELEGQKQYQLRGMATLEGYRELKAGSTLIRHAEELLRKKGADLLWCNARISASGYYKKLGFSEQGEVYDIPPIGPHILMYKKLT
modifications: 4B_1G4
notes: GAT polypeptide
On to B12, for which the Kcat amounted to 3.7 min⁻¹ and the Km was 1 mM.

B13: SEQ ID NO: 383: GAT polypeptide (protein)
chain: MIEVKPINAEDTYEIRHRILRPNQPLEACKYETDLLGGTFHLGGYYRGKLISIASFHQAEHSELEGQKQYQLRGMATLEGYREQKAGSTLIRHAEELLRKKGADLLWCNARTSASGYYKKLGFSEQGGVYDIPPVGPHILMYKKLT
modifications: 6_16A5
notes: GAT polypeptide
Consider B13, for which the Kcat is 43.8 min⁻¹ and the Km was 1.1 mM.

B14: SEQ ID NO: 385: GAT polypeptide (protein)
chain: MIEVKPINAEDTYEIRHRILRPNQPLEACKYEADLLGGTFHLGGYYRGKLISIASFHQAEHPELEGQKQYQLRGMATLEGNREQKAGSTLIRHAEELLRKKGADLLWCNARTSASGYYKKLGFSEQGEVYDVPPIGPHILMYKKLT
modifications: 6_17C5
notes: GAT polypeptide
B14: the Kcat is 35.2 min⁻¹ and the Km was 1.3 mM.

B15: SEQ ID NO: 374: GAT polypeptide (protein)
chain: MIEVKPINAEDTYEIRHRILRPNQPLEACMYETDLLGGTFHLGGYYRGKLISIASFHQAEHSELEGQKQYQLRGMATLEEYREQKAGSTLIRHAEELLRKKGADLLWCNARISASGYYKKLGFSEQGGVYDIPPIGPHILMYKKLT
modifications: 4B_21C6
notes: GAT polypeptide
For B15, the Kcat came out at 11.8 min⁻¹ and the Km came to 0.8 mM.

B16: SEQ ID NO: 372: GAT polypeptide (protein)
chain: MIEVKPINAEDTYEIRHRILRPNQPLEACKYETDLLGGTFHLGGYYRGKLISIASFHQAEHPELEGQKQYQLRGMATLEGYREQKAGSTLIRHAEELLRKKGADLLWCNARTSASGYYKKLGFSEQGGVYDIPPIGPHILMYKKLA
modifications: 4B_19C8
notes: GAT polypeptide
As to B16, the Kcat came out at 15.9 min⁻¹ and the Km was 1.2 mM.

B17: SEQ ID NO: 269: GAT polypeptide (protein)
chain: MIEVKPINAEDTYEIRHRILRPNQPLEACKYETDLLGGTLHLGGYYRGKLISIASFHQAEHPELEGQKQYQLRGMATLEEYREQKAGSTLIRHAEELLRKKGADLLWCNARTSASGYYKKLGFSEQGEVYDIPPTGPHILMYKKLT
modifications: 10_12D7
notes: GAT polypeptide
As to B17, the Kcat was 77.3 min⁻¹ and the Km is 1.8 mM.

B18: SEQ ID NO: 384: GAT polypeptide (protein)
chain: MIEVKPINAEDTYEIRHRILRPNQPLEACMYETDLLGGTFHLGGYYRGKLISIASFHQAVHSELEGQKQYQLRGMATLEGYREQKAGSTLIRHAEELLRKKGADLLWCNARTSASGYYKKLGFSEQGGVYDIPPVGPHILMYKKLT
modifications: 6_16F5
notes: GAT polypeptide
Turning to B18, the Kcat amounted to 35.2 min⁻¹ and the Km stood at 1 mM.

B19: SEQ ID NO: 377: GAT polypeptide (protein)
chain: MIEVKPINAEDTYEIRHRILRPNQPLEACKYETDLLGGTFHLGGYYRGKLISIASFHQAEHSELEGQKQYQLRGMATLEGYREQKAGSTLIRHAEELLRKKGADLLWCNARTSASGYYKKLGFSEHGEVYDIPPIGPHILMYKKLT
modifications: 4B_6D8
notes: GAT polypeptide
Take B19: the Kcat was 22.7 min⁻¹ and the Km stood at 1.5 mM.

B20: SEQ ID NO: 378: GAT polypeptide (protein)
chain: MIEVKPINAEDTYEIRHRILRPNQPLEACMYETDLLGGTFHLGGYYRGKLISIASFHQAEHSELEGQKQYQLRGMATLEGYREQKAGSTLIRHAEELLRKKGADLLWCNARTSVSGYYKKLGFSEQGEVYDIPPIGPHILMYKKLT
modifications: 4B_7E8
notes: GAT polypeptide
Consider B20, for which the Kcat was found to be 20.5 min⁻¹ and the Km came to 1.2 mM.
